Laboratory results published in paper PMC8373119.

Legend:
[1] = biological target: ΔLaminin G1_Celsr3 (mouse Celsr3-Flag lacking the laminin G1 domain) (mouse) (UniProt Q91ZI0); assay: co-IP
[2] = biological target: ΔEGF/Lam_Celsr3 (mouse Celsr3-Flag lacking all the EGF repeats and laminin domains) (mouse) (UniProt Q91ZI0); assay: co-IP

B1: mouse Frizzled3 (Frizzled3-HA) (receptor)
chain: HSLFSCEPITLRMCQDLPYNTTFMPNLLNHYDQQTAALAMEPFHPMVNLDCSRDFRPFLCALYAPICMEYGRVTLPCRRLCQRAYSECSKLMEMFGVPWPEDMECSRFPDCDEPYPRLVDLNLVGDPTEGAPVAVQRDYGFWCPRELKIDPDLGYSFLHVRDCSPPCPNMYFRREELSFARYFIGLISIICLSATLFTFLTFLIDVTRFRYPERPIIFYAVCYMMVSLIFFIGFLLEDRVACNASSPAQYKASTVTQGSHNKACTMLFMVLYFFTMAGSVWWVILTITWFLAAVPKWGSEAIEKKALLFHASAWGIPGTLTIILLAMNKIEGDNISGVCFVGLYDVDALRYFVLAPLCLYVVVGVSLLLAGIISLNRVRIEIPLEKENQDKLVKFMIRIGVFSILYLVPLLVVIGCYFYEQAYRGIWETTWIQERCREYHIPCPYQVTQMSRPDLILFLMKYLMALIVGIPSIFWVGSKKTCFEWASFFHGRRKKEIVNESRQVLQEPDFAQSLLRDPNTPIIRKSRGTSTQGTSTHASSTQLAMVDDQRSKAGSVHSKVSSYHGSLHRSRDGRYTPCSYRGMEERLPHGSMSRLTDHSRHSSSHRLNEQSRHSSIRDLSNNPMTHITHGTSMNRVIEEDGTSA
[1]
  percent reduction of the interaction against wild-type Celsr3: 66%
[2]
  percent reduction of the interaction against wild-type Celsr3: 68%
